This note sets out measurements from US20110150901A1.

The target in the experiment is complex of FGFR1c and β-Klotho (recombinant proteins) (UniProt P11362). The experiment in a line: AlphaScreen competition. The note with it: ligand. A general note: Bead proximity is the source of the signal in Alpha formats.
Sequence of complex of FGFR1c and β-Klotho (recombinant proteins) (P11362 other isoform, or with tags, fused parts or gaps, chain 1 of 2): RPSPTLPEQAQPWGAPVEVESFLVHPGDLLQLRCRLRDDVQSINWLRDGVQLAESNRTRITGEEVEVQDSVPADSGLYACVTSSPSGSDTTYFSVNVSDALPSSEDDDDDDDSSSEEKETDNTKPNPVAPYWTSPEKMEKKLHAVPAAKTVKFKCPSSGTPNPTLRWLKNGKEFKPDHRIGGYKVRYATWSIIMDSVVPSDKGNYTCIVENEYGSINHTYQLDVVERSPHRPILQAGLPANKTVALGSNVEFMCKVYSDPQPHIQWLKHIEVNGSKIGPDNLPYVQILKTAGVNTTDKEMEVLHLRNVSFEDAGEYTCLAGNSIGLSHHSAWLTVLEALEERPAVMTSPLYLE
Sequence of complex of FGFR1c and β-Klotho (recombinant proteins) (Q86Z14 53-996, chain 2 of 2, further chain): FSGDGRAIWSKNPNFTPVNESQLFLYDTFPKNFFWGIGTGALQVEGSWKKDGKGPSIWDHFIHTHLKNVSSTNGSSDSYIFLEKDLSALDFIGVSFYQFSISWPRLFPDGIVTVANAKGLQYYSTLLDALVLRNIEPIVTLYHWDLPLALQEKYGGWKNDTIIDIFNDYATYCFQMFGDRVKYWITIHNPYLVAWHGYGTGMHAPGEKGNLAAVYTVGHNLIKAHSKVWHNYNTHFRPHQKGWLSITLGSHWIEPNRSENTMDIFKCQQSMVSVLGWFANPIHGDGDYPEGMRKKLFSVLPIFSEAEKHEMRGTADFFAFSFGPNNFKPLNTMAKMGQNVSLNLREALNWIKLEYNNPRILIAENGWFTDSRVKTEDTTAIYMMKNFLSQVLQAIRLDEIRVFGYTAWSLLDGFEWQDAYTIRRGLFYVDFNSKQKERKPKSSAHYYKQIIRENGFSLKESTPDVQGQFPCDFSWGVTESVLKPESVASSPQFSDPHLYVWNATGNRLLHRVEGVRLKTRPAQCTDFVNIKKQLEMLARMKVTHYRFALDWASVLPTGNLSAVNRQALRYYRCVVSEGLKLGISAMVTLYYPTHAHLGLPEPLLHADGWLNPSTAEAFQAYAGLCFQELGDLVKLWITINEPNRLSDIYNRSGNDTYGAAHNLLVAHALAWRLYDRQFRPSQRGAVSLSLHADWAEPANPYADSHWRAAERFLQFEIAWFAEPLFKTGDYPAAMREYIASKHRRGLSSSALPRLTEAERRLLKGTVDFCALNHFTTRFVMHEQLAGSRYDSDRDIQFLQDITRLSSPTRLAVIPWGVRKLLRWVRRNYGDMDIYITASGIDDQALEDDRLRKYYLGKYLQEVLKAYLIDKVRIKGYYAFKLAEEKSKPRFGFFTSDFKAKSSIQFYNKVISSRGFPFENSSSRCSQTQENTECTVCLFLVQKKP

By IC50 is commonly meant the concentration that inhibits the measured activity by half. In the case of “human FGF21 (from UniProt Q9NSA1 29-209)”, the IC50 was 2.6 nM.
